The values that follow come from paper PMC9488787.

Like-named read-outs stand apart in the source and are kept apart here.

With “Hrq1: Hrq1-7KR (K164R, K219R, K221R, K366R, K839R, K872R, K938R)”, the degradation_or_half_life entry is listed as “decreases” (ubiquitination at K164); “decreases” (ubiquitination at K219); “decreases” (ubiquitination at K221); “decreases” (ubiquitination at K366); “decreases” (ubiquitination at K839); “decreases” (ubiquitination at K872). Further, the degradation_or_half_life result (ubiquitination at K938) was “decreases”. For the same substance, the expression_or_secretion result (ubiquitination at K164) is “no change”; the expression_or_secretion entry (ubiquitination at K219) is “no change”; the expression_or_secretion entry (ubiquitination at K221) is given as “no change”; the expression_or_secretion entry (ubiquitination at K366) is reported as “no change”; the expression_or_secretion result (ubiquitination at K839) is reported as “no change”; the expression_or_secretion result (ubiquitination at K872) is given as “no change”. Also, for the setting “ubiquitination at K938”, the expression_or_secretion entry was “no change”.
